From IntAct's records for PubMed 12486103

B1: Inhibitor of nuclear factor kappa-B kinase subunit beta (Homo sapiens), O14920 (parent)
chain: MSWSPSLTTQTCGAWEMKERLGTGGFGNVIRWHNQETGEQIAIKQCRQELSPRNRERWCLEIQIMRRLTHPNVVAARDVPEGMQNLAPNDLPLLAMEYCQGGDLRKYLNQFENCCGLREGAILTLLSDIASALRYLHENRIIHRDLKPENIVLQQGEQRLIHKIIDLGYAKELDQGSLCTSFVGTLQYLAPELLEQQKYTVTVDYWSFGTLAFECITGFRPFLPNWQPVQWHSKVRQKSEVDIVVSEDLNGTVKFSSSLPYPNNLNSVLAERLEKWLQLMLMWHPRQRGTDPTYGPNGCFKALDDILNLKLVHILNMVTGTIHTYPVTEDESLQSLKARIQQDTGIPEEDQELLQEAGLALIPDKPATQCISDGKLNEGHTLDMDLVFLFDNSKITYETQISPRPQPESVSCILQEPKRNLAFFQLRKVWGQVWHSIQTLKEDCNRLQQGQRAAMMNLLRNNSCLSKMKNSMASMSQQLKAKLDFFKTSIQIDLEKYSEQTEFGITSDKLLLAWREMEQAVELCGRENEVKLLVERMMALQTDIVDLQRSPMGRKQGGTLDDLEEQARELYRRLREKPRDQRTEGDSQEMVRLLLQAIQSFEKKVRVIYTQLSKTVVCKQKALELLPKVEEVVSLMNEDEKTVVRLQEKRQKELWNLLKIACSKVRGPVSGSPDSMNASRLSQPGQLMSQPSTASNSLPEPAKKSEELVAEAHNLCTLLENAIQDTVREQDQSFTALDWSWLQTEEEEHSCLEQAS
B2: Inhibitor of nuclear factor kappa-B kinase subunit alpha (Homo sapiens), O15111 (parent)
chain: MERPPGLRPGAGGPWEMRERLGTGGFGNVCLYQHRELDLKIAIKSCRLELSTKNRERWCHEIQIMKKLNHANVVKACDVPEELNILIHDVPLLAMEYCSGGDLRKLLNKPENCCGLKESQILSLLSDIGSGIRYLHENKIIHRDLKPENIVLQDVGGKIIHKIIDLGYAKDVDQGSLCTSFVGTLQYLAPELFENKPYTATVDYWSFGTMVFECIAGYRPFLHHLQPFTWHEKIKKKDPKCIFACEEMSGEVRFSSHLPQPNSLCSLVVEPMENWLQLMLNWDPQQRGGPVDLTLKQPRCFVLMDHILNLKIVHILNMTSAKIISFLLPPDESLHSLQSRIERETGINTGSQELLSETGISLDPRKPASQCVLDGVRGCDSYMVYLFDKSKTVYEGPFASRSLSDCVNYIVQDSKIQLPIIQLRKVWAEAVHYVSGLKEDYSRLFQGQRAAMLSLLRYNANLTKMKNTLISASQQLKAKLEFFHKSIQLDLERYSEQMTYGISSEKMLKAWKEMEEKAIHYAEVGVIGYLEDQIMSLHAEIMELQKSPYGRRQGDLMESLEQRAIDLYKQLKHRPSDHSYSDSTEMVKIIVHTVQSQDRVLKELFGHLSKLLGCKQKIIDLLPKVEVALSNIKEADNTVMFMQGKRQKEIWHLLKIACTQSSARSLVGSSLEGAVTPQTSAWLPPTSAEHDHSLSCVVTPQDGETSAQMIEENLNCLGHLSTIIHEANEEQGNSMMNLDWSWLTE

Variants of: B1
Conditions: with ikba_human NFKBIA

Row | effect of a mutation on the interaction | Variant
1 | decreasing interaction | K44A

Variants of: B2
Conditions: with ikba_human NFKBIA

Row | effect of a mutation on the interaction | Variant
2 | disrupting interaction | K44M
